T1: Rpn7, subunit of LP2 and lid purified from yeast (S. cerevisiae, UniProt Q06103 1-429)
T1 construct: Rpn7, S. cerevisiae proteasome lid subunit; source: purified from S. cerevisiae as part of LP2 or lid
T1 sequence (looked up): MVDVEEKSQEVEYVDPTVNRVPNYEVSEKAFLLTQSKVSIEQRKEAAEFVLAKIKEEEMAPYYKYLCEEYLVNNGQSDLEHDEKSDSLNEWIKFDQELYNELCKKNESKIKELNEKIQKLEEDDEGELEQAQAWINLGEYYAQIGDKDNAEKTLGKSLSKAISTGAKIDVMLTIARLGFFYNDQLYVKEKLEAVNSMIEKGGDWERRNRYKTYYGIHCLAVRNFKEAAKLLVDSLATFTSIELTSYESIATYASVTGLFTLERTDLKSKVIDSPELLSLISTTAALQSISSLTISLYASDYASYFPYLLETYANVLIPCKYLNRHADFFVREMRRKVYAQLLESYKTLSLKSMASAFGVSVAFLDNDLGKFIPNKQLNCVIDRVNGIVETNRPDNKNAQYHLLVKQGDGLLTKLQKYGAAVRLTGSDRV

T2: Rpn3, subunit of LP2 and lid purified from yeast (S. cerevisiae, UniProt P40016 1-523)
T2 construct: Rpn3, S. cerevisiae proteasome lid subunit; source: purified from S. cerevisiae as part of LP2 or lid
T2 sequence (looked up): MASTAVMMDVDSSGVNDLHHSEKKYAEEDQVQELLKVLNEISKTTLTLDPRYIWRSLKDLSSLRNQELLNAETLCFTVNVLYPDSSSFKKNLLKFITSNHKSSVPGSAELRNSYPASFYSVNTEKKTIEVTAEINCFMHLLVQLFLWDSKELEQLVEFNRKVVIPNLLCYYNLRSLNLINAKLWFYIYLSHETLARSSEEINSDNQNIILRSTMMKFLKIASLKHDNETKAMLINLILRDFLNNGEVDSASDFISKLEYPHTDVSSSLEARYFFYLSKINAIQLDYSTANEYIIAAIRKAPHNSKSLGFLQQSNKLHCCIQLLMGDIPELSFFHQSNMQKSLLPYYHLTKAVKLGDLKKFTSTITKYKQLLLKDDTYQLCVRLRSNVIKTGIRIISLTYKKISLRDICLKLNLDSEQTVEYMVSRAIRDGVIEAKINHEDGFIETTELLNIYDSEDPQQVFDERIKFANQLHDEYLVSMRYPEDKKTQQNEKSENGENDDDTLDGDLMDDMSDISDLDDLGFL

T3: Rpn8, subunit of LP2 and lid purified from yeast (S. cerevisiae, UniProt Q08723 1-338)
T3 construct: Rpn8, S. cerevisiae proteasome lid subunit; source: purified from S. cerevisiae as part of LP2 or lid
T3 sequence (looked up): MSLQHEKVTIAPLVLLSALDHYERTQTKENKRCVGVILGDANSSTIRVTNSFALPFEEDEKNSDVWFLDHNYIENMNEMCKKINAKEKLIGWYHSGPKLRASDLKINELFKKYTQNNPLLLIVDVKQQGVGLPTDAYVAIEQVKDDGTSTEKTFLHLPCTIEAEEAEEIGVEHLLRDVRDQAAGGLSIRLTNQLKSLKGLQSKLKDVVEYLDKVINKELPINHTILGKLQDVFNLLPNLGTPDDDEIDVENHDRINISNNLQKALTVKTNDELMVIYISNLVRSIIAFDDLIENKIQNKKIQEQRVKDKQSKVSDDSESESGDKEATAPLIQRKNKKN

B1: Sem1, subunit of LP2 and lid purified from yeast (natural protein, S. cerevisiae, UniProt O94742 1-89, looked up)
chain: MSTDVAAAQAQSKIDLTKKKNEEINKKSLEEDDEFEDFPIDTWANGETIKSNAVTQTNIWEENWDDVEVDDDFTNELKAELDRYKRENQ
notes: Sem1, S. cerevisiae proteasome lid subunit; source: purified from S. cerevisiae as part of LP2 or lid
B2: Rpn5, subunit of LP2 and lid purified from yeast (natural protein, S. cerevisiae, UniProt Q12250 1-445, looked up)
chain: MSRDAPIKADKDYSQILKEEFPKIDSLAQNDCNSALDQLLVLEKKTRQASDLASSKEVLAKIVDLLASRNKWDDLNEQLTLLSKKHGQLKLSIQYMIQKVMEYLKSSKSLDLNTRISVIETIRVVTENKIFVEVERARVTKDLVEIKKEEGKIDEAADILCELQVETYGSMEMSEKIQFILEQMELSILKGDYSQATVLSRKILKKTFKNPKYESLKLEYYNLLVKISLHKREYLEVAQYLQEIYQTDAIKSDEAKWKPVLSHIVYFLVLSPYGNLQNDLIHKIQNDNNLKKLESQESLVKLFTTNELMRWPIVQKTYEPVLNEDDLAFGGEANKHHWEDLQKRVIEHNLRVISEYYSRITLLRLNELLDLTESQTETYISDLVNQGIIYAKVNRPAKIVNFEKPKNSSQLLNEWSHNVDELLEHIETIGHLITKEEIMHGLQAK
notes: Rpn5, S. cerevisiae proteasome lid subunit; source: purified from S. cerevisiae as part of LP2 or lid
B3: Rpn12-E271K, recombinant (natural protein, S. cerevisiae, UniProt P32496 1-274, looked up)
chain: MPSLAELTKSLSIAFENGDYAACEKLLPPIKIELIKNNLLIPDLSIQNDIYLNDLMITKRILEVGALASIQTFNFDSFENYFNQLKPYYFSNNHKLSESDKKSKLISLYLLNLLSQNNTTKFHSELQYLDKHIKNLEDDSLLSYPIKLDRWLMEGSYQKAWDLLQSGSQNISEFDSFTDILKSAIRDEIAKNTELSYDFLPLSNIKALLFFNNEKETEKFALERNWPIVNSKVYFNNQSKEKADYEDEMMHEEDQKTNIIEKAMDYAISIKNIV
notes: Rpn12, S. cerevisiae proteasome lid subunit, Glu271 to lysine
B4: Rpn6, subunit of LP2 and lid purified from yeast (natural protein, S. cerevisiae, UniProt Q12377 1-434, looked up)
chain: MSLPGSKLEEARRLVNEKQYNEAEQVYLSLLDKDSSQSSAAAGASVDDKRRNEQETSILELGQLYVTMGAKDKLREFIPHSTEYMMQFAKSKTVKVLKTLIEKFEQVPDSLDDQIFVCEKSIEFAKREKRVFLKHSLSIKLATLHYQKKQYKDSLALINDLLREFKKLDDKPSLVDVHLLESKVYHKLRNLAKSKASLTAARTAANSIYCPTQTVAELDLMSGILHCEDKDYKTAFSYFFESFESYHNLTTHNSYEKACQVLKYMLLSKIMLNLIDDVKNILNAKYTKETYQSRGIDAMKAVAEAYNNRSLLDFNTALKQYEKELMGDELTRSHFNALYDTLLESNLCKIIEPFECVEISHISKIIGLDTQQVEGKLSQMILDKIFYGVLDQGNGWLYVYETPNQDATYDSALELVGQLNKVVDQLFEKASVLY
notes: Rpn6, S. cerevisiae proteasome lid subunit; Also stands as the whole protein for the region row on the E. coli truncations; source: purified from S. cerevisiae as part of LP2 or lid

Tests used:
Details in all cases: both partners purified
[1] = biological target: T1, Rpn7, subunit of LP2 and lid purified …; experiment: cross-linking; QCLMS of LP2 purified from yeast as a whole complex: BS3-d0 / BS3-d4 at 1:200 protein to cross-linker, Buffer HA, 30°C 1 h; monomeric cross-linked complex cut from SDS-PAGE, trypsin, LC-MS/MS
[2] = biological target: T2, Rpn3, subunit of LP2 and lid purified …; experiment: as above
[3] = biological target: T3, Rpn8, subunit of LP2 and lid purified …; experiment: cross-linking; QCLMS of lid purified from yeast as a whole complex: BS3-d0 / BS3-d4 at 1:200 protein to cross-linker, Buffer HA, 30°C 1 h; monomeric cross-linked complex cut from SDS-PAGE, trypsin, LC-MS/MS
[4] = biological target: T2, Rpn3, subunit of LP2 and lid purified …; experiment: as above
[5] = biological target: T4, lid particle 2 (LP2), recombinant (S. cerevisiae, UniProt P40016 1-523; Q12250 1-445; Q12377 1-434; Q06103 1-429; Q08723 1-338; Q04062 …); experiment: native gel or EMSA; RP assembly assay: recombinant components 1 uM each with 10 uM Rpn10 in 26S buffer (50 mM Tris-HCl pH 7.5, 5 mM MgCl2, 10% glycerol, 1 mM ATP), 30°C 20 min; native PAGE at 4°C; Coomassie or immunoblot (FLAG on Rpt1, HA on Rpn7, Rpn12)
T4 construct: Rpn3, S. cerevisiae proteasome lid subunit; Rpn5, S. cerevisiae proteasome lid subunit; Rpn6, S. cerevisiae proteasome lid subunit; Rpn7, S. cerevisiae proteasome lid subunit; Rpn8, S. cerevisiae proteasome lid subunit; Rpn9, S. cerevisiae proteasome lid subunit; Rpn11, S. cerevisiae proteasome lid subunit; Sem1, S. cerevisiae proteasome lid subunit; legends speak of 'untagged LP2'; operons as in …
T4 sequence (P43588 whole entry, one chain of several): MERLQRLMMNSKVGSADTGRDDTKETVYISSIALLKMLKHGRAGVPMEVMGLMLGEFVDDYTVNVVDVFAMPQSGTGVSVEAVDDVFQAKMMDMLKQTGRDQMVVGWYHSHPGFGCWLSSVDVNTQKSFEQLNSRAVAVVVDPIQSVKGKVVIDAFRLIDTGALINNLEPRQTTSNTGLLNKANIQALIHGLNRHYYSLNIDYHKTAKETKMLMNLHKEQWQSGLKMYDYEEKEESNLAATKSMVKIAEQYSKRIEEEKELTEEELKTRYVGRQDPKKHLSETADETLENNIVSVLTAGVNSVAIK

[6] = biological target: T2, Rpn3, subunit of LP2 and lid purified …; experiment: negative-stain EM; single-particle 3D reconstruction of LP2 purified from yeast at 16 Å; ~50 nM complex in Buffer A, 2% uranyl acetate
[7] = biological target: B2; experiment: cross-linking; QCLMS of lid purified from yeast as a whole complex: BS3-d0 / BS3-d4 at 1:200 protein to cross-linker, Buffer HA, 30°C 1 h; monomeric cross-linked complex cut from SDS-PAGE, trypsin, LC-MS/MS

Binder: B1
- binding result [1]: binds
- binding result [2]: binds
- binding result [3]: binds

Binder: B2
- binding result [4]: binds

Binder: B3
- binding result [5]: binds

Binder: B4
- binding result [6]: binds
- binding result [7]: binds
